In general, EC50 (read off the curve) refers to the concentration that produces a half-maximal response. For orientation: EC50 means the concentration at which the effect is half-maximal. As a reminder, the IC50 is the concentration at which inhibition is half-maximal. Broadly, the Kd is the constant that tells how readily two partners part at equilibrium. Read a high Kd as weaker binding. Broadly, the koff is a measure of how fast the partners let go of each other. High values mean fast dissociation, low ones slow dissociation. As a reminder, the kon is the rate constant with which the complex forms.

This note sets out measurements from patent publication US20240207432A1 (BIOSION, published 2024).

In experiment [1] the target is T1, cynomolgus TROP2-his protein (cynomolgus monkey, UniProt P09758 27-272 (human entry), limits assumed).
T1 construct: no cleavage site is stated; also called Cynomolgus monkey TROP2-his protein; monkey TROP2
T1 chain: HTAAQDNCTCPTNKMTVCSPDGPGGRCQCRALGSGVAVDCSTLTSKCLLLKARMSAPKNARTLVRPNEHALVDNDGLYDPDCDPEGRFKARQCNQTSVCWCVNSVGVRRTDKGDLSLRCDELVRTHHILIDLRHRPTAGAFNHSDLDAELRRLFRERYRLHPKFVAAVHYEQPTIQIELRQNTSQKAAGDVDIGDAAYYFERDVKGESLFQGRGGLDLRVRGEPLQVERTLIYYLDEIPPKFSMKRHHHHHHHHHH
Nature of the experiment: indirect ELISA, cynomolgus TROP2-his coated at 2 ug/mL, OD(450-630). The protocol:
The anti-TROP2 antibodies of the disclosure were tested for their cross-reaction with cynomolgus TROP2 proteins. Briefly, 96-well micro plates were coated with 100 μl 2 μg/ml cynomolgus TROP2-his proteins (prepared in-house with SEQ ID NO: 70) in carbonate/bicarbonate buffer (pH 9.6) overnight at 4° C. ELISA plates were washed once with wash buffer (PBS+0.05% v/v Tween-20, PBST) and then blocked with 200 μl/well blocking buffer (5% w/v non-fatty milk in PBST) for 2 hours at 37° C. […] After a final wash, plates were incubated with 100 μl/well TMB (Innoreagents) at room temperature. The reaction was stopped 3-10 minutes later at room temperature with 50 μl/well 1M H₂SO₄, and the absorbance of each well was read on a microplate reader using dual wavelength mode with 450 nm for TMB and 630 nm as the reference wavelength. The OD (450-630) values were plotted against antibody concentration. Data was analyzed using Graphpad Prism software and EC₅₀ values were reported.
For orientation: ELISA stands for enzyme-linked immunosorbent assay.

The target of experiment [2] is T2, human TROP2-his protein (human, UniProt P09758 27-274).
T2 construct: Biotin-labelled in the ELISAs, unlabelled analyte in Biacore; also called biotin-labeled human TROP2-his protein; biotin human Trop2-his
T2 sequence: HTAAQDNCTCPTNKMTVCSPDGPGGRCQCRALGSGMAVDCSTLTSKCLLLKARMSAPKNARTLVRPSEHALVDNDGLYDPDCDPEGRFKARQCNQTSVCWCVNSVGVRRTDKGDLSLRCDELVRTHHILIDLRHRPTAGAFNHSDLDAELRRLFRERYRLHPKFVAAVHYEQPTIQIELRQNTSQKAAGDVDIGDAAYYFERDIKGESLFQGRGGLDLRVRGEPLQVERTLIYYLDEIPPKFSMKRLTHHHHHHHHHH
As to the kind of experiment: capture ELISA, captured antibody, biotin human TROP2-his in solution, OD(450-630).

In experiment [3] the target is T2, human TROP2-his protein. Nature of the experiment: competitive ELISA: BM1 coated, antibody premixed with biotin human TROP2-his; blocked: binding of TROP2-his to coated BM1; partial only: OD falls from about 1.9 to a plateau of about 1.3.
The target in experiment [4] is T2, human TROP2-his protein. Nature of the experiment: SPR Biacore, antibody captured on anti-human IgG CM5 chip, TROP2-his analyte. Here is the method: (§1) Un-reacted moieties on the chip (biosensor) surface were blocked with ethanolamine. […] The antigen-antibody association kinetics was followed for 2 minutes and the dissociation kinetics was followed for 10 minutes. The association and dissociation curves were fit to a 1:1 Langmuir binding model using BIAcore evaluation software.
A general note: Surface plasmon resonance follows binding to a sensor surface in real time, without labels.

Experiment [5] deals with T1, cynomolgus TROP2-his protein. Described as above. Here is the method:
as §1

For experiment [6], the target named is T2, human TROP2-his protein. As to the kind of experiment: epitope grouping ELISA, 15 ug/ml antibody premixed with biotin human TROP2-his; competitor: coated BM2. The protocol:
Firstly, capture ELISA was performed to determine the concentration of biotin-labeled human Trop2 proteins appropriate for the epitope binning test. […] The plates were washed for 4 times, added with 100 μl/well of serially diluted biotin human Trop2-his proteins (SEQ ID NO: 67) in PBST with 2.5% non-fatty milk (starting from 1.3 μg/ml with a 5-fold serial dilution), and incubated for 40 min at 37° C. Then the plates were washed for 4 times and added with 100 μl/vell of HRP-streptavidin (Jackson Immuno Research, Cat #016-030-084). The plates were incubated for another 40 min at 37° C. Then the plates were washed again, and 100 μl/well TMB was added for color development at RT for 15 min followed by quenching with 50 μl 1M H₂SO₄. The OD values at 450 nm were read.
With the appropriate concentration determined above, epitope grouping ELISA was performed. […] ELISA plates were washed once with wash buffer (PBS+0.05% v/v Tween-20, PBST) and then blocked with 200 μl blocking buffer (5% w/w non-fatty milk in PBST) for 2 hours at 37° C. […] The mixtures were incubated at room temperature for 40 minutes. After plate washing for 4 times, the antibody/biotin-TROP2-his protein mixtures were added to the antibody coated plates, 100 μl per well, and incubated for another 40 min at 37° C. Then 100 μl/well of HRP-streptavidin was added and incubated for 40 min. Then OD₄₅₀ values were determined and the cross-competition capability was calculated (cross-competition capability of antibody X (%)=(OD₄₅₀ of Antibody X-[…] of Blank)/(OD₄₅₀ of no mAb-OD₄₃₀ of Blank)*100%).

B1: mouse antibody C1B3B12D2 (antibody, V domains shown)
VH: QVQLQQSGPELVRPGTSVKMSCKAAGYTFTKFWIGWVKQRPGHGLEWIGNIYPGGAYINYNENFKGKATLTADTFSSTAYMQLNSLTSADSAIYYCAREGSSGYWGQGTTLTVSS
VL: DIVMTQSPSSLTVTAGEKVTLSCKCSQSLLNSGTQENYLTWYQQKPGQPPKMLIYWASIREPGVPDRFTGSGSGTDFTLTINNVQAEDLAVYYCQHDYSYPFTFGSGTKLEIK
notes: Mouse monoclonal IgG purified from hybridoma supernatant
Consider B1, for which the “EC50 (read off the curve)” value in experiment [1] was approximately 0.6 nM. Moreover, the half-maximal effective concentration (EC50) with human TROP2-his protein [2] was determined as 0.117 nM.

B2: mouse antibody A1E4F7D4 (antibody, V domains shown)
VH: QVQLQQSGAELAKPGTSVKMSCEASGYSFTTHWIHWMKQRPGQGLEWIGTIFPSNAYAVYNQKFRDRAIMTADRSSTTAYIQLTGLTSEDSAVYYCARASYFDYWGQGTTLTVSS
VL: DILLTQSPATLSVSPGERVTFSCRASQNIGTSIHWFQQRTTGSPRLLIKYASESISGIPSRFSGSGSGTDFTLHINSVESEDIAHYYCQHSHSWPFTFGSGTKLEIQ
notes: Mouse monoclonal IgG purified from hybridoma supernatant; also called Mouse A1E4F7D4
The molecule B2 came in with an EC50 with human TROP2-his protein [2] of 0.261 nM. This molecule gave a 50% inhibitory concentration (IC50) with human TROP2-his protein [3] of 0.702 nM.

B3: huA1E4F7D4-V16 (antibody, human IgG1, kappa, V domains shown)
VH: QVQLVQSGAEVKKPGASVKVSCKASGYSFTTHWIHWVRQAPGQGLEWIGTIFPSNAYAVYNQKFRDRATMTADTSISTAYIELSRLRSDDTAVYYCARASYFDYWGQGTTVTVSS
VL: EIVLTQSPATLSLSPGERATLSCRASQNIGTSIHWFQQKPGGAPRLLIKYASESISGIPSRFSGSGSGTDFTLTISSLEPEDFAVYYCQHSHSWPFTFGQGTKLEIKR
notes: Positions of the X residues are given in the claims; also called humanized antibody huA1E4F7D4-V16
In the case of B3, in the experiment with human TROP2-his protein [4], the Kd is 0.183 nM, the koff was determined as 0.000195 s⁻¹ and the on-rate (kon) is 1.06e+06 M⁻¹ s⁻¹. In experiment [5], the dissociation constant Kd was 0.132 nM, the koff came to 0.000164 s⁻¹ and the kon was found to be 1.25e+06 M⁻¹ s⁻¹. In addition, the OD450 with human TROP2-his protein [6] worked out at 1.92 OD450. In the experiment with human TROP2-his protein [3], this molecule registered an IC50 of 0.353 nM.

B4: benchmark (in house prepared sacituzumab) (antibody, human IgG1, kappa, V domains shown)
VH: SVQLQQSGSELKKPGASVKVSCKASGYTFTNYGMNWVKQAPGQGLKWMGWINTYTGEPTYTDDFKGRFAFSLDTSVSTAYLQISSLKADDTAVYFCARGGFGSSYWYFDVWGQGSLVTVSS
VL: DIQLTQSPSSLSASVGDRVSITCKASQDVSIAVAWYQQKPGKAPKLLIYSASYRYTGVPDRFSGSGSGTDFTLTISSLQPEDFAVYYCQQHYITPLTFGAGTKVEIKR
notes: also called BM; BM1
In experiment [1], B4 displayed a half-maximal effective concentration (EC50) of 0.385 nM. Moreover, the Kd in the experiment with human TROP2-his protein [4] is 0.983 nM; in experiment [5] it was 0.529 nM. In the experiment with human TROP2-his protein [6], this molecule returned an OD450 of 0.031 OD450.
